The values that follow come from PMC6662825, “The MTR4 helicase recruits nuclear adaptors of the human RNA exosome using distinct arch-interacting motifs” (Nature Communications, 2019).

In one assay the target is T1, GST-MTR4-∆N (human, UniProt P42285 75-1042).
T1 construct: Tag is cleavable with 3C protease; kept for the GST pull-downs; also called GST-tagged MTR4∆N; source: E. coli BL21 star (DE3), purified (Ni-NTA, heparin, SEC); not shown: 6xHis-GST, N-terminal, kept
T1 sequence (looked up): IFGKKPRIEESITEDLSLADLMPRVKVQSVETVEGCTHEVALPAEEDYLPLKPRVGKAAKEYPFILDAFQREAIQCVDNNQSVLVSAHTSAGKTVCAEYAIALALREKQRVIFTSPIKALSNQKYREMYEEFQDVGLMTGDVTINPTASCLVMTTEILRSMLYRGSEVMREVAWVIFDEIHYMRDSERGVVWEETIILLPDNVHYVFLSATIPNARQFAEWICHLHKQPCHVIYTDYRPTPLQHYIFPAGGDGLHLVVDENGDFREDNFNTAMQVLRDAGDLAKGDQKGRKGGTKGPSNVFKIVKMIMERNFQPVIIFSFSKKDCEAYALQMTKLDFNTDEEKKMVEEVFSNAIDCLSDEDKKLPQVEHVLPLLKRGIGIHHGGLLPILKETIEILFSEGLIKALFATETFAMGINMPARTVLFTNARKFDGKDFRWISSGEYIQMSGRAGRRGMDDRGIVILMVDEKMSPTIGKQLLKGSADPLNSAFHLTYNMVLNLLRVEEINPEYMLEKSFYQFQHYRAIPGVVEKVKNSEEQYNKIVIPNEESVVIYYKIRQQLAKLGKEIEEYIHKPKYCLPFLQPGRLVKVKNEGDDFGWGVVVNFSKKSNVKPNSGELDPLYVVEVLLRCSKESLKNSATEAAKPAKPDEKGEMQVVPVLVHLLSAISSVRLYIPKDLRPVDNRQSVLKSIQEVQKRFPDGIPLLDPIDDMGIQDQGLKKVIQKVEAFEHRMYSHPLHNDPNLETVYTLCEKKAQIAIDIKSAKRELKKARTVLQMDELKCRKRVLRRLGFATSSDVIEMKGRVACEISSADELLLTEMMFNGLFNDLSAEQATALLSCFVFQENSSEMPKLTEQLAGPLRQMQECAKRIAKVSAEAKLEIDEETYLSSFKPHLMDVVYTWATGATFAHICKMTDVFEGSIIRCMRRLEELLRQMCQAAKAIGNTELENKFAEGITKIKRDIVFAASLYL
Briefly: pull-down; GST-tagged MTR4 constructs as bait, Trx-NVL constructs as prey, glutathione sepharose; 10 μM GST-MTR4∆N with 20 μM Trx-NVL constructs; 50 mM Hepes pH 7.5, 150 mM NaCl, 5% glycerol, 0.05% NP40, 1 mM DTT, 30 min at 4 °C; SDS-PAGE, Coomassie. The settings on record: both partners purified.

A further assay addresses T2, GST-MTR4-KOW (human, UniProt P42285 645-787).
T2 construct: human MTR4 KOW domain, residues 645–787; also called GST-tagged MTR4 KOW; source: E. coli BL21 star (DE3), purified (Ni-NTA, heparin, SEC); not shown: 6xHis-GST, N-terminal, kept
T2 sequence (looked up): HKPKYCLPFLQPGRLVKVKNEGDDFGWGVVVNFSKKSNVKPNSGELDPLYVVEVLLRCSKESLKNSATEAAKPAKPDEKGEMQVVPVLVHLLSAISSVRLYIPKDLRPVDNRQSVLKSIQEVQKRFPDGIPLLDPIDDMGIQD
Described as above. The settings on record: both partners purified.

B1: Trx-NVL^167–216 (domain or fragment, human, UniProt O15381 167-216, looked up)
chain: KDSEGGWFIDKTPSVKKDSFFLDLSCEKSNPKKPITEIQDSKDSSLLESD
notes: source: E. coli BL21 star (DE3), purified (Ni-NTA, SEC); not shown: 6xHis-Trx, N-terminal, kept
Regarding B1, the binding result with GST-MTR4-∆N and with GST-MTR4-KOW was “binds” in each case.
